{"source": "patent US20210380664A1", "about": "(AICURIS ANTI INFECTIVE CURES, published 2021)", "molecular_target": "HCMV virus particles, strain TB40/E", "assay": "cell-based or functional assay", "data": [{"binder": "GRHIYIYVPDPDVAFVPLGMTDYLVIVEDDDSAIIPCRTT", "note": "[PDGFR-alpha derived 40mer peptide GT40]", "values": [{"measurement": "EC50 of inhibition of infection of HFFs by peptide", "value": 2000, "unit": "nM"}]}]}
